# Results taken from patent US20200299347A1.
# Target: FGFR3
# Experiment: cell-based or functional assay
substance,measurement,value
sprifermin (rhFGF18) (from UniProt O76093 28-196) (ligand),"FGF18 EC50 (nM), BaF3/FGFR3 cell proliferation (ATP) assay",0.02 nM
